Test results from PMC13483476.

Columns and labels:
[1] = target: JR-FL.v6 V3 peptide (HIV-1 clade B isolate JR-FL); assay: SPR
[2] = target: JR-FL.v6 V3 peptide (HIV-1 clade B isolate JR-FL); assay: differential scanning fluorimetry

Question: For 19b antigen-binding fragment (Fab), which Kd [1] is on record?
Answer: The Kd was 1.74 nM.

Question: And the increase of the transition temperature of the Fab when bound to the peptide [2]?
Answer: The increase of the transition temperature of the Fab when bound to the peptide was 6.3 °C.
